Values quoted from earlier work in patent US7468440B2, “Malonamides and malonamide derivatives as modulators of chemokine receptor activity” (Bristol-Myers Squibb Company, priority 2003, dated 2008).

System: MCP-1 expression
Conditions: human multiple sclerosis, effective therapy

B1: interferon b-1b: interferon b-1b, effective therapy in human multiple sclerosis (protein, UniProt P01574 22-187, looked up, variant C17S)
Interferon beta: MSYNLLGFLQRSSNFQSQKLLWQLNGRLEYCLKDRMNFDIPEEIKQLQQFQKEDAALTIYEMLQNIFAIFRQDSSSTGWNETIVENLLANVYHQINHLKTVLEEKLEKEDFTRGKLMSSLHLKRYYGRILHYLKAKEYSHCAWTIVRVEILRNFYFINRLTGYLRN
modifications: interferon beta-1b
- effect on MCP-1 expression in peripheral blood mononuclear cells: reduces MCP-1 expression
